As a reminder, the pKd is the negative decadic logarithm of the Kd, by convention in mol/L.

pKd: −log10 of the molar value.

In test [1] the target is HLA-A*02:01. The test can be described thus: IEDB peptide-MHC binding, purified MHC/direct/fluorescence; filed as Kd, often an IC50 or EC50 that approximates it; ≥ and ≤ were set here for values at or beyond the usual limits of such assays.
For another test, the target named is HLA-A*03:01. Described as above.
A further test has as its target HLA-A*11:01. Described as above.
A further test concerns the target HLA-A*26:01. The description is as above. Conditions: source organism: Mycobacterium tuberculosis str. Haarlem.
A further test concerns the target HLA-A*31:01. Described as above.
The target in another test is HLA-A*69:01. Described as above.
In the next test the target is HLA-B*08:02. The test is described as above.
For another test, the target named is HLA-B*15:01. Described as above.
A further test concerns the target HLA-B*15:09. The test is described as above. Conditions: source organism: Mycobacterium tuberculosis str. Haarlem.
A further test concerns the target HLA-B*15:17. Described as above.
The next test addresses HLA-B*18:01. The description is as above.
The next test concerns the target HLA-B*27:05. The test is described as above.
For the next test, the target named is HLA-B*40:01. The description is as above.
For another test, the target named is HLA-B*46:01. The test is described as above.
The target of another test is HLA-B*48:01. The description is as above.
Test [2] deals with HLA-B*51:01. Described as above.
The target of a further test is HLA-B*57:01. Described as above.
For the next test, the target named is HLA-B*58:01. The test is described as above.
Test [3] has as its target HLA-A*01:01. The test can be described thus: IEDB peptide-MHC binding, purified MHC/competitive/fluorescence; filed as Kd, often an IC50 or EC50 that approximates it; ≥ and ≤ were set here for values at or beyond the usual limits of such assays. Conditions: source organism: Mycobacterium tuberculosis variant bovis BCG str. Pasteur 1173P2.
In test [4] the target is HLA-A*01:01. The test can be described thus: IEDB peptide-MHC binding, purified MHC/direct/fluorescence; filed as Kd, often an IC50 or EC50 that approximates it; ≥ and ≤ were set here for values at or beyond the usual limits of such assays.
In the next test the target is HLA-B*44:02. Described as above. The note with it: source organism: Yellow fever virus.
Test [5] addresses HLA-A*02:01. The experiment in a line: IEDB peptide-MHC binding, purified MHC/competitive/fluorescence; filed as Kd, often an IC50 or EC50 that approximates it; ≥ and ≤ were set here for values at or beyond the usual limits of such assays. Conditions: source organism: Giardia lamblia ATCC 50803.
Test [6] addresses HLA-A*02:12. The description is as above. Conditions: source organism: Giardia lamblia ATCC 50803.
For the next test, the target named is HLA-A*02:11. The experiment in a line: IEDB peptide-MHC binding, purified MHC/direct/fluorescence; filed as Kd, often an IC50 or EC50 that approximates it; ≥ and ≤ were set here for values at or beyond the usual limits of such assays. The note with it: source organism: Mycobacterium tuberculosis str. Haarlem.
For test [7], the target named is HLA-A*02:12. The description is as above. The note with it: source organism: Mycobacterium tuberculosis str. Haarlem.
The target in another test is HLA-B*39:01. The description is as above. Conditions: source organism: Mycobacterium tuberculosis str. Haarlem.
Test [8] has as its target HLA-B*07:02. The experiment in a line: IEDB peptide-MHC binding, purified MHC/competitive/fluorescence; filed as Kd, often an IC50 or EC50 that approximates it; ≥ and ≤ were set here for values at or beyond the usual limits of such assays.
Another test has as its target HLA-B*35:01. The test is described as above.
The next test addresses HLA-B*15:42. The test is described as above.
The target of a further test is HLA-B*45:06. The test is described as above.
The target in the next test is HLA-B*83:01. The test is described as above.
The target in a further test is HLA-C*04:01. The test is described as above.
A further test addresses HLA-C*05:01. The test can be described thus: IEDB peptide-MHC binding, purified MHC/direct/fluorescence; filed as Kd, often an IC50 or EC50 that approximates it; ≥ and ≤ were set here for values at or beyond the usual limits of such assays.
The target of another test is HLA-B*08:01. The experiment in a line: IEDB peptide-MHC binding, purified MHC/competitive/fluorescence; filed as Kd, often an IC50 or EC50 that approximates it; ≥ and ≤ were set here for values at or beyond the usual limits of such assays. The note with it: source organism: Yersinia pestis Nepal516.
For test [9], the target named is HLA-B*51:01. The description is as above. The note with it: source organism: Yersinia pestis Nepal516.
Test [10] has as its target HLA-B*07:02. The experiment in a line: IEDB peptide-MHC binding, purified MHC/direct/fluorescence; filed as Kd, often an IC50 or EC50 that approximates it; ≥ and ≤ were set here for values at or beyond the usual limits of such assays. Conditions: source organism: Yellow fever virus.
[11] abbreviates: source organism: Mycobacterium tuberculosis.
Where [12] appears, read: source organism: Yellow fever virus.
Setting [13] is: source organism: Burkholderia mallei.
[14] abbreviates: source organism: Influenza A virus (A/Leningrad/1954/1(H1N1)).
Setting [15] is: source organism: West Nile virus.
Setting [16] is: source organism: Yersinia pestis Nepal516.
Setting [17] is: source organism: Rattus norvegicus.
The mark [18] stands for this setting: source organism: Mycobacterium tuberculosis C.

With SPREECGVF, the pKd in the test with HLA-A*02:01 [1] (setting [11]), with HLA-A*03:01 (setting [11]), with HLA-A*11:01 (setting [11]), with HLA-A*26:01, with HLA-A*31:01 (setting [11]) and with HLA-A*69:01 (setting [11]) was no more than 4.70 in each case. For the same sequence, the pKd is no more than 4.70 with HLA-B*08:02 (source organism: Mycobacterium tuberculosis str. Haarlem); 5.92 with HLA-B*15:01 (setting [11]); no more than 4.70 in the test with HLA-B*15:09; no more than 4.70 with HLA-B*15:17 (setting [11]); no more than 4.70 with HLA-B*18:01 (setting [11]); no more than 4.70 in the test with HLA-B*27:05 (setting [11]). The pKd with HLA-B*40:01 (setting [11]), in the test with HLA-B*46:01 (setting [11]), in the test with HLA-B*48:01 (setting [11]), with HLA-B*51:01 [2] (setting [11]), with HLA-B*57:01 (setting [11]) and with HLA-B*58:01 (setting [11]) was no more than 4.70 throughout. In the test with HLA-A*01:01 [3], the pKd was no more than 4.70.

Take EVRLATMLF: the pKd with HLA-A*01:01 [4] (setting [12]), with HLA-A*02:01 [1] (setting [12]), with HLA-A*03:01 (setting [12]), with HLA-A*11:01 (setting [12]), with HLA-A*31:01 (setting [12]) and with HLA-B*08:02 (setting [12]) was no more than 4.70 in each case. Also, the pKd in the test with HLA-B*27:05 (setting [12]), in the test with HLA-B*40:01 (setting [12]), with HLA-B*44:02, with HLA-B*46:01 (setting [12]), with HLA-B*48:01 (setting [12]) and in the test with HLA-B*57:01 (setting [12]) was no more than 4.70 throughout. The sequence also showed a pKd in the test with HLA-B*58:01 (setting [12]) of no more than 4.70.

For SVFQGALFA, the pKd with HLA-A*02:01 [5] is 5.72; with HLA-A*02:12 [6] it was 4.96.

With APAKKAAAK, the pKd with HLA-A*01:01 [4] (setting [13]), in the test with HLA-A*02:01 [1] (setting [13]), with HLA-A*02:11, with HLA-A*02:12 [7], with HLA-A*03:01 (setting [13]) and with HLA-A*11:01 (setting [13]) was no more than 4.70 in each case. Moreover, the pKd with HLA-A*26:01, with HLA-A*31:01 (setting [13]), with HLA-A*69:01 (setting [13]), in the test with HLA-B*15:01 (setting [13]), with HLA-B*15:09 and in the test with HLA-B*15:17 (setting [13]) was no more than 4.70 throughout. Also, the pKd in the test with HLA-B*18:01 (setting [13]), with HLA-B*27:05 (setting [13]), with HLA-B*39:01, with HLA-B*40:01 (setting [13]), with HLA-B*46:01 (setting [13]) and in the test with HLA-B*48:01 (setting [13]) was no more than 4.70 each time. Besides, the pKd with HLA-B*51:01 [2] (setting [13]), with HLA-B*57:01 (setting [13]) and in the test with HLA-B*58:01 (setting [13]) was no more than 4.70 throughout.

Consider LVSLGAISF, for which the values for the pKd with HLA-B*07:02 [8] (setting [14]) and in the test with HLA-B*35:01 (setting [14]) were no more than 4.70 and 6.54, respectively.

Consider REWFMDLNL, for which the pKd with HLA-B*18:01 (setting [15]) is 5.87; with HLA-B*15:42 (setting [15]), no more than 5.30; in the test with HLA-B*45:06 (setting [15]), no more than 5.30; in the test with HLA-B*83:01 (setting [15]) it was no more than 5.30; with HLA-C*04:01 (setting [15]), no more than 5.30.

As to FPIKRISAV, the pKd was no more than 4.70 with HLA-C*05:01 (setting [16]), 7.29 with HLA-B*08:01, 9.40 in the test with HLA-B*35:01 (setting [16]) and 6.57 with HLA-B*51:01 [9].

In the case of YFDPANGKF, the pKd with HLA-A*01:01 [4] (source organism: Homo sapiens) was 5.44; in the test with HLA-A*02:01 [1] (source organism: Homo sapiens), no more than 4.64; with HLA-A*11:01 (source organism: Homo sapiens) it was no more than 4.36; with HLA-A*69:01 (source organism: Homo sapiens), no more than 4.55; with HLA-C*05:01 (setting [17]), 6.96; in the test with HLA-C*04:01 (setting [17]) it was 8.82.

Regarding EPLAVIASL, the pKd with HLA-B*07:02 [8] (setting [16]) is no more than 4.70; in the test with HLA-B*35:01 (setting [16]) it was 8.77; with HLA-B*51:01 [9], no more than 4.70.

For the sequence YFHKRDMRL, the pKd was no more than 4.70 in the test with HLA-A*01:01 [4] (setting [12]); no more than 4.70 with HLA-A*03:01 (setting [12]); no more than 4.70 with HLA-A*11:01 (setting [12]); no more than 4.70 with HLA-A*69:01 (setting [12]); no more than 4.70 with HLA-B*07:02 [10]; 5.33 with HLA-B*08:02 (setting [12]). Besides, the pKd with HLA-B*15:01 (setting [12]), in the test with HLA-B*18:01 (setting [12]), in the test with HLA-B*27:05 (setting [12]), with HLA-B*40:01 (setting [12]), in the test with HLA-B*44:02 and in the test with HLA-B*46:01 (setting [12]) was no more than 4.70 each time. For the same sequence, the pKd in the test with HLA-B*48:01 (setting [12]), with HLA-B*57:01 (setting [12]) and with HLA-B*58:01 (setting [12]) was no more than 4.70 in each case.

In the case of RLYELIGSV, the negative-log Kd (pKd) in the test with HLA-B*15:42 (setting [18]), with HLA-B*45:06 (setting [18]), with HLA-B*83:01 (setting [18]) and with HLA-C*04:01 (setting [18]) was no more than 5.30 throughout.

The values above are taken from the Immune Epitope Database (IEDB).
